Experimental data reported in US20050158323A1, “Methods of killing tumor cells by targeting internal antigens exposed on apoptotic tumor cells” (Vaccinex, Inc., priority 2003, published 2005).
Blank lines part the entries; values can stand above or below the molecule they belong to.

How the values were obtained:
[1] = Maximum Tolerated Dose of chemotherapy in xenograft models (Table 6); conditions: mouse, in vivo, intravenous; nude mice; MTD confirmed by present inventors
From the text: Because of concerns regarding cumulative dose-limiting bone marrow toxicity when combining chemotherapy and radioimmunotherapy, it is necessary to determine the Maximum Tolerated Dose (MTD) of combination therapy and, where toxicity of the two therapeutic agents is additive, adopt strategies that will permit administration of both toxic agents. MTD is established by regulatory criteria related to the time required for platelet and white cell recovery in peripheral circulation. Such standards are familiar to those skilled in the art. In the case of murine models, an often employed surrogate definition of MTD is the maximum dose that results in an average of less than 20% weight loss or less than 10% mortality. Currently established MTD for the most common chemotherapeutic agents employed in standard clinical protocols or in animal models are shown in Tables 6 to 9, below.

[2] = target: T1, C35 positive tumors and cell lines (Homo sapiens, UniProt Q9BRT3); test: Immunohistochemistry of formalin fixed, paraffin embedded samples; format: binding
T1 construct: from tissue
T1 sequence (Q9BRT3 1-115): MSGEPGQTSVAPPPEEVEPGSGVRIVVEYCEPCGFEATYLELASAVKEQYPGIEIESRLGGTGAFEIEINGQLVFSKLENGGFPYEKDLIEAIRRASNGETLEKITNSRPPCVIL
Description: (§1) Hybridoma cell lines IF2.4.1 and 1B3.6.1, specific for C35 polypeptides, were prepared using hybridoma technology. (Kohler et al., Nature 256:495 (1975); Kohler et al., Eur. J. Immunol. 6:511 (1976); Kohler et al., Eur. J. Immunol. 6:292 (1976); Hammerling et al., in: Monoclonal Antibodies and T-Cell Hybridomas, Elsevier, N.Y., pp. 571-681 (1981)). Briefly, hybridoma cell lines were generated using standard PEG fusion to the non-secreting myeloma cell line NS-1 (P3/NS1/1-AG4-1, ATCC #TIB-18) of splenocytes from BALB/c mice immunized with syngeneic BCA34 fibroblast tumor cells transduced to overexpress C35. Following PEG fusion to NS-1, the hybridomas were grown in methylcellulose semi-solid media. Approximately 2 weeks later, hybridoma colonies were isolated into 96 well plates and individual supernatants were tested for reactivity with C35 by ELISA, Western blot, and immunohistochemistry. Positive hybridomas colonies were subcloned and screened for reactivity twice to ensure clonality. Antibodies were isolated from hybridoma supernatants by protein G affinity purification using standard methods. […] In addition, we have developed intracellular staining flow cytometry assays for quantitative analysis using antibodies from hybridoma cell line 1F2 conjugated to Alexa-647 flourochrome. Each of these antibodies is distinct, yet both are specific for C35 protein. […]

C35 protein [3] = target: T2, C35 protein (Homo sapiens, UniProt Q9BRT3); test: Competitive binding ELISA; conditions: 1F2 versus 1B3
T2 sequence (Q9BRT3 1-115): T1 sequence (Q9BRT3 1-115)
Description: as §1

C35 protein [4] = target: T2, C35 protein; test: ELISA and Western Blot of hybridoma antibodies; format: binding; conditions: ELISA and Western Blot assays
Description: as §1

[5] = target: T3, recombinant human C35 (rhC35) (Homo sapiens, UniProt Q9BRT3); test: Epitope localization by Western blot of Lys-C digested rhC35; format: binding; conditions: Western blot, 1 μg/ml antibody
T3 construct: made in house; host or cells: E. coli
T3 sequence (Q9BRT3 1-104): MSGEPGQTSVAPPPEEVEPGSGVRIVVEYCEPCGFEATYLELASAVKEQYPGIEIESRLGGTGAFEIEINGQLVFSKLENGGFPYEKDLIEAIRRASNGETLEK
From the text: (§2) To localize the epitope specificity of 1B3 and 1F2 antibodies, recombinant human C35 (rhC35) synthesized with a 6× His tag in E. coli was digested with Lys-C endoproteinase. This enzyme cuts after lysine (K) residues in the protein sequence. […] The full sequence of rhC35, including the amino terminal 6× His tag addition is shown. Amino acid positions are numbered relative to the amino terminal methionine (M) of the native human sequence. Note that digestion at the first and third lysine followed by negatively charged residues is inefficient and some longer combination fragments may be generated. Lys-C endoproteinase was added to purified rhC35 at a […] weight ratio and incubated for 18 hours at 37° C. in 25 mM Tris, pH 8.0. The digest was ethanol precipitated and resolubilized in reducing Tricine sample buffer. After heating 5 minutes at 100° C., samples were separated by electrophoresis on a 16% Tricine gel (Invitrogen). Peptides were transferred to PVDF membranes and the blots depicted in FIG. 10 were either stained with Coomassie blue (lanes 1-3 of both left and right panels) to detect all peptides or processed with one of the following: 1 μg/ml of the murine 1F2 anti-C35 antibody followed by alkaline phosphatase conjugated goat anti-mouse antibody (lane 4 of left panel); 1 μg/ml of the 1B3 anti-C35 immunoglobulin variable regions linked to human constant regions (MAb11) followed by alkaline phosphatase conjugated goat anti-human antibody (lane 5 of left panel); or anti-6× His tag mouse antibody (Amersham) followed by alkaline phosphatase conjugated goat anti-mouse antibody (lane 4 and 5 of right panel). BCIP/NBT substrate was added and developed to detect the secondary reagents. Molecular weight markers are indicated in the flanking lanes of both panels.
(§3) In FIG. 10, the indicated band A migrates at the position of undigested rhC35. Note that band B stains with 1F2 but not MAb11 (1B3) anti-C35 antibody while band C stains with neither 1F2 nor MAb11 (1B3) antibody. Since bands B and C both do stain with anti-6× His tag antibody to the 6× His tag at the amino terminus of rhC35, it may be concluded that both fragments lack C-terminal peptide fragments. […] This epitope is not required for staining with 1F2.

[6] = target: T4, recombinant human C35 (rhC35) (Homo sapiens, UniProt Q9BRT3); test: as above; format: binding; conditions: Western blot, 1 μg/ml antibody; remark: listed apart in the source
T4 construct: made in house; host or cells: E. coli
T4 sequence (Q9BRT3 1-52): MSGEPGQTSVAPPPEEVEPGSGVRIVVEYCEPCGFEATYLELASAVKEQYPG
From the text: as §2, §3

[7] = target: T5, recombinant human C35 (rhC35) (Homo sapiens, UniProt Q9BRT3); test: as above; format: binding; conditions: native C35 sequence numbering; 1 μg/ml antibody
T5 construct: made in house; host or cells: E. coli
T5 sequence (Q9BRT3 1-115): T1 sequence (Q9BRT3 1-115)
From the text: as §2, §3

[8] = target: T6, C35 on surface membrane of 21MT1 breast tumor cells (Homo sapiens, UniProt Q9BRT3); test: C35 surface staining of breast tumor cells after radiation induced apoptosis (flow cytometry); format: cell-based; conditions: 50 ng Alexa 647 conjugated antibody
T6 construct: 21MT1, derived from breast carcinoma, naturally expresses high levels of C35; endogenous in cells; host or cells: 21MT1 breast tumor cells
T6 sequence (Q9BRT3 1-115): T1 sequence (Q9BRT3 1-115)
Description: (§4) A line of continuously growing breast tumor cells that express the C35 tumor antigen was either irradiated with 300 Gy or left untreated. After continued in vitro culture for several days to allow apoptosis to develop, cells were harvested, washed and stained with 50 ng of 1F2 monoclonal anti-C35 antibody or a mouse IgG antibody control each conjugated to the fluorescent dye Alexa 647. Following 50 minutes incubation at 25C, cells were stained with Annexin V and propidium iodide (PI) using a standard commercial kit (Pharmingen). Cells were analyzed for staining with Annexin V, propidium iodide and Alexa 647 by flow cytometry employing standard protocols.

[9] = target: T7, C35 on surface membrane of breast tumor cells that express the C35 tumor antigen (Homo sapiens, UniProt Q9BRT3); test: C35 surface staining of breast tumor cells after mitomycin C induced apoptosis (flow cytometry); format: cell-based; conditions: 50 ng Alexa 647 conjugated antibody
T7 construct: A line of continuously growing breast tumor cells that express the C35 tumor antigen; endogenous in cells
T7 sequence (Q9BRT3 1-115): T1 sequence (Q9BRT3 1-115)
Description: as §4, with “treated” for “irradiated”, “6 ug/ml mitomycin C” for “300 Gy”, “48 hours” for “several days”

[10] = untreated live cells (PI negative), Annexin V negative

Molecule: COc1cccc2c1C(=O)c1c(O)c3c(c(O)c1C2=O)C[C@@](O)(C(=O)CO)C[C@@H]3O[C@H]1C[C@H](N)[C@H](O)[C@H](C)O1 [Adriamycin, Doxorubicin]
MTD [1]: 10 mg/kg

staining of approximately 15 kDa band B (lacks C35 residues 105-115) [5]: stains
staining of approximately 8 kDa band C (in addition lacks residues 53-104) [6]: does not react
epitope specificity [7]: residues 53-104
differential staining versus isotype control antibody [8, 10]: absence of differential staining
differential staining versus isotype control antibody [9, 10]: absence of differential staining
B1: 1F2: mouse monoclonal anti-C35 antibody from hybridoma 1F2, gamma1 isotype, kappa light chain; VH SEQ ID NO:4, VK SEQ ID NO:6 (antibody, listed as Mus sp., V domains shown)
VH: DVQLQESGPGLVKPSQSLSLTCSVTGYSITSGYFWNWIRQFPGNKLEWMGYISYDGSNNSNPSLKNRISFTRDTSKNQFFLKFNSVTTDDSAAYYCTRGTTGFAYWGQGTLVTVSA
VL: QIVLTQSPAIMSASPGEKVTISCSASSSVSYMNWYQQKPGSSPKPWIYHTSNLASGVPARFSGSGSGTSYSLTISSMEAEDAATYYCQQYHSYPPTFGGGTKLEIK
immunohistochemical staining [2]: specifically stain formalin fixed, paraffin embedded C35 positive tumors and cell lines
epitope comparison by competition (C35 protein [3]): bind different epitopes of the C35 protein
binding to recombinant C35 protein (C35 protein [4]): specifically bind recombinant C35 protein
differential staining versus isotype control antibody ([8]; irradiated (300 Gy) tumor cells, viable (PI negative), undergoing apoptosis (Annexin V positive)): clearly differentially stained
differential staining versus isotype control antibody ([9]; 6 ug/ml mitomycin C, 48 hours, viable (PI negative), undergoing apoptosis (Annexin V positive)): clearly differentially stained
